Non-standard residues stand in square brackets, D forms with d. No end group written: not given here.
B1: TF2D-5a (peptide)
chain: [dD]GG[dY][dQ][dI][dL][dF][dK][dI][dP]GG[dH][dI][dH][dR][dR][dR][dR][dR]-NH2
modifications: N-terminus assumed
SMILES: CC[C@@H](C)[C@@H](NC(=O)[C@@H](Cc1c[nH]cn1)NC(=O)CNC(=O)CNC(=O)[C@H]1CCCN1C(=O)[C@H](NC(=O)[C@@H](CCCCN)NC(=O)[C@@H](Cc1ccccc1)NC(=O)[C@@H](CC(C)C)NC(=O)[C@H](NC(=O)[C@@H](CCC(N)=O)NC(=O)[C@@H](Cc1ccc(O)cc1)NC(=O)CNC(=O)CNC(=O)[C@H](N)CC(=O)O)[C@H](C)CC)[C@H](C)CC)C(=O)N[C@H](Cc1c[nH]cn1)C(=O)N[C@H](CCCNC(=N)N)C(=O)N[C@H](CCCNC(=N)N)C(=O)N[C@H](CCCNC(=N)N)C(=O)N[C@H](CCCNC(=N)N)C(=O)N[C@H](CCCNC(=N)N)C(N)=O
B2: TF2D-5 (peptide)
chain: [dD]GG[dY][dQ][dI][dL][dF][dK][dI][dP]GG[dH][dI][dH]-NH2
modifications: N-terminus assumed
SMILES: CC[C@@H](C)[C@@H](NC(=O)[C@@H](Cc1c[nH]cn1)NC(=O)CNC(=O)CNC(=O)[C@H]1CCCN1C(=O)[C@H](NC(=O)[C@@H](CCCCN)NC(=O)[C@@H](Cc1ccccc1)NC(=O)[C@@H](CC(C)C)NC(=O)[C@H](NC(=O)[C@@H](CCC(N)=O)NC(=O)[C@@H](Cc1ccc(O)cc1)NC(=O)CNC(=O)CNC(=O)[C@H](N)CC(=O)O)[C@H](C)CC)[C@H](C)CC)C(=O)N[C@H](Cc1c[nH]cn1)C(N)=O

Experiments:
full-length tau 441 [1] = biological target: T1, full-length tau 441 (Homo sapiens, UniProt P10636); assay: SPR
T1 sequence (P10636 2-758): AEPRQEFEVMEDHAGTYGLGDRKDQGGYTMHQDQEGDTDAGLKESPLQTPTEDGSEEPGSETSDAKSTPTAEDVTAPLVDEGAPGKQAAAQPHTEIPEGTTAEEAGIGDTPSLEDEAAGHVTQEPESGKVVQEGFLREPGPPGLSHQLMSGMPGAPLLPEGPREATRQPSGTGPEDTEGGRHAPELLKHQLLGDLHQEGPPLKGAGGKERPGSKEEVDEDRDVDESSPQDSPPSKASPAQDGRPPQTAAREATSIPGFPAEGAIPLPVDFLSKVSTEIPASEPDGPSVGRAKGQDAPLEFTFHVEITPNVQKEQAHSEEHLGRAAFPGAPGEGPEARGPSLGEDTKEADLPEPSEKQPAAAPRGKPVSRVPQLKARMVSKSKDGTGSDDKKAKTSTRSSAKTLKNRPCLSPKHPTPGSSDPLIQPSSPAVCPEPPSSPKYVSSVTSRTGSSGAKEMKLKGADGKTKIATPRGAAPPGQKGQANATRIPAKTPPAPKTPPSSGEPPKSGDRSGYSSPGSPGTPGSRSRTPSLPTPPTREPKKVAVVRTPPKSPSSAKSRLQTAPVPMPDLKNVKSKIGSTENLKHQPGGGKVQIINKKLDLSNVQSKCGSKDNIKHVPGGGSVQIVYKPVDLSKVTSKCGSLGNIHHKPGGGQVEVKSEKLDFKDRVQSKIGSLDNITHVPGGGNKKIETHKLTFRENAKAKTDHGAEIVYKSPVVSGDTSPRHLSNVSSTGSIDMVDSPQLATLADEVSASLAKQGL

tau R3 domain 304-336 = biological target: T2, tau R3 domain 304-336 (Homo sapiens, UniProt P10636); assay: SPR
T2 chain: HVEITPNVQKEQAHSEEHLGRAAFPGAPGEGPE

full-length tau 441 [2] = biological target: T1, full-length tau 441; assay: MST

Binder	Kd (full-length tau 441 [1]) [nM]	Kd (tau R3 domain 304-336) [nM]	Kd (full-length tau 441 [2]) [nM]
B1	6.1	0.007	–
[dD]GG[dY][dQ][dI][dL][dF][dK][dI][dP]GG[dH][dI][dH][dR][dR][dR][dR][dR]-NH2 (also: CF633 label, position not given here)	–	–	11.7
B2	1.3	–	–
[dD]GG[dY][dQ][dI][dL][dF][dK][dI][dP]GG[dH][dI][dH]-NH2 (also: CF633 label, position not given here)	–	–	0.308

Source: article PMC9917023 (2023)
